Test results from patent US20220259593A1, “CONTROL OF MAMMALIAN GENE DOSAGE USING CRISPR” (The Regents of the University of California, priority 2019, published 2022).
Where a chain is given by its changes, count along the chain named.

B1: cr697 (nucleic acid)
guide: GTTTAAGAGCTAAGCTGGAAACAGCATTGCAAGTTTAAATAAGGCGAGTCCGTTATCAACTTGCAAAAGTGGCACCGAGTCGGTGCT
modifications: listed as DNA, chemistry not fully specified
B2: cr740 (nucleic acid)
guide: B1 guide with T28A, G46T, C64A, G72C, C75G, G83C, C86G
modifications: listed as DNA, chemistry not fully specified
B3: cr819 (nucleic acid)
guide: B1 guide with T28C, G46T, A47G, T53G, C64A
modifications: listed as DNA, chemistry not fully specified
B4: cr678 (nucleic acid)
guide: B1 guide with T28A, G46T, C64A, G85A
modifications: listed as DNA, chemistry not fully specified
B5: cr652 (nucleic acid)
guide: B1 guide with T28C, G46T, T53G, C64G
modifications: listed as DNA, chemistry not fully specified
B6: cr886 (nucleic acid)
guide: B1 guide with T28A, G46T, C60A, T62A, C64A, A67T, G69T, C75G, G83C
modifications: listed as DNA, chemistry not fully specified
B7: cr876 (nucleic acid)
guide: B1 guide with T28A, G46T, C64A, G82A
modifications: listed as DNA, chemistry not fully specified
B8: cr931 (nucleic acid)
guide: B1 guide with T28A, G46T, C64A, A74C, C76T, G82A, T84G
modifications: listed as DNA, chemistry not fully specified
B9: cr443 (nucleic acid)
guide: B1 guide with T16G, T28A, G46T, C64A
modifications: listed as DNA, chemistry not fully specified
B10: cr449 (nucleic acid)
guide: B1 guide with T28A, G44C, G46T, C50G, C64A, C75G, G83C
modifications: listed as DNA, chemistry not fully specified
B11: cr859 (nucleic acid)
guide: B1 guide with T28A, G29C, G46T, A47T, C64A, A65G
modifications: listed as DNA, chemistry not fully specified
B12: cr550 (nucleic acid)
guide: B1 guide with T28A, G46T, C64A, C76A, G77A, C81T, G82T
modifications: listed as DNA, chemistry not fully specified
B13: cr684 (nucleic acid)
guide: B1 guide with T28A, G46T, C64A, C76T, G77A, C81T, G82A
modifications: listed as DNA, chemistry not fully specified
B14: cr517 (nucleic acid)
guide: B1 guide with T28A, G46T, C64A, G82T
modifications: listed as DNA, chemistry not fully specified
B15: cr484 (nucleic acid)
guide: B1 guide with T28A, G46T, C64A, G72C, G77A, C81T, C86G
modifications: listed as DNA, chemistry not fully specified
B16: cr818 (nucleic acid)
guide: B1 guide with T28A, C30G, G46T, C64A
modifications: listed as DNA, chemistry not fully specified
B17: cr558 (nucleic acid)
guide: B1 guide with T28A, G46T, C64A, A74T, C76G, G82C, T84A
modifications: listed as DNA, chemistry not fully specified
B18: cr890 (nucleic acid)
guide: B1 guide with T28A, G46T, C64A, A78C, T87C
modifications: listed as DNA, chemistry not fully specified
B19: cr470 (nucleic acid)
guide: B1 guide with G24T, T28A, G46T, C64A
modifications: listed as DNA, chemistry not fully specified
B20: cr516 (nucleic acid)
guide: B1 guide with T28A, G44C, G46T, C50G, A59G, C64A, T70C
modifications: listed as DNA, chemistry not fully specified
B21: cr506 (nucleic acid)
guide: B1 guide with T28A, G44C, G46T, C50G, C64A, C73G, G85C
modifications: listed as DNA, chemistry not fully specified
B22: cr380 (nucleic acid)
guide: B1 guide with T28A, G46T, C64A, A65G, C73T, G85A
modifications: listed as DNA, chemistry not fully specified
B23: cr585 (nucleic acid)
guide: B1 guide with T28A, G46T, C64A, A74T, T84A
modifications: listed as DNA, chemistry not fully specified
B24: cr199 (nucleic acid)
guide: B1 guide with T28A, G46T, C64A, A65G, G77T, C81A
modifications: listed as DNA, chemistry not fully specified
B25: cr164 (nucleic acid)
guide: B1 guide with T28A, G46T, C64A, A74C
modifications: listed as DNA, chemistry not fully specified
B26: cr905 (nucleic acid)
guide: B1 guide with T28A, G46T, C64A, G72A, C73T, G77A, C81T, G85A, C86T
modifications: listed as DNA, chemistry not fully specified
B27: cr394 (nucleic acid)
guide: B1 guide with T28A, G46T, C64A, A67C
modifications: listed as DNA, chemistry not fully specified
B28: cr852 (nucleic acid)
guide: B1 guide with T28A, G46T, C60G, T61A, T62A, G63A, C64A, A67T, G69C
modifications: listed as DNA, chemistry not fully specified
B29: cr911 (nucleic acid)
guide: B1 guide with T28A, G46A, A47C, C64A, G79A
modifications: listed as DNA, chemistry not fully specified
B30: cr733 (nucleic acid)
guide: B1 guide with T28A, G46T, C64A, C75A, C76A, G82T, G83T
modifications: listed as DNA, chemistry not fully specified
B31: cr104 (nucleic acid)
guide: B1 guide with T28A, G46T, C64A, C73A
modifications: listed as DNA, chemistry not fully specified
B32: cr879 (nucleic acid)
guide: B1 guide with T28A, T54C, T56G, C64A
modifications: listed as DNA, chemistry not fully specified
B33: cr805 (nucleic acid)
guide: B1 guide with T28A, A42G, G46T, C64A, A65T
modifications: listed as DNA, chemistry not fully specified
B34: cr712 (nucleic acid)
guide: B1 guide with G24C, T28A, G46T, C64A
modifications: listed as DNA, chemistry not fully specified
B35: cr219 (nucleic acid)
guide: B1 guide with T28A, G44C, G46T, C50G, C64A, A65G
modifications: listed as DNA, chemistry not fully specified
B36: cr621 (nucleic acid)
guide: B1 guide with T28A, G44A, G46T, C50T, T61G, C64A, A68C, G77A, C81T
modifications: listed as DNA, chemistry not fully specified
B37: cr836 (nucleic acid)
guide: B1 guide with T28A, G46T, C60T, C64A
modifications: listed as DNA, chemistry not fully specified
B38: cr508 (nucleic acid)
guide: B1 guide with T28A, G46C, T54G, C64A, T80C
modifications: listed as DNA, chemistry not fully specified
B39: cr119 (nucleic acid)
guide: B1 guide with T28A, G46T, C64A, G69T
modifications: listed as DNA, chemistry not fully specified
B40: cr477 (nucleic acid)
guide: B1 guide with T28A, G46T, T56C, C64A
modifications: listed as DNA, chemistry not fully specified
B41: cr215 (nucleic acid)
guide: B1 guide with T28A, G46T, C64A, G71A
modifications: listed as DNA, chemistry not fully specified

System: K562 CRISPRi cells
Test: Constant region variant library pooled growth screen, K562
Format: cell-based, human
Conditions: sgRNA constant region variants; activity relative to the original, un-modified constant region cr995
How it was run: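 K562 CRISPRi, duplicate transductions; puromycin 1 d 0.75 μg/mL then 1 d 0.85 μg/mL; >2000× coverage in spinner flasks; harvests at 4-8 d growth. Activity = phenotype ÷ phenotype with unmodified constant region.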

| Molecule | Mean relative activity |
| --- | --- |
| B1 | 0.8183 |
| B2 | 0.8153 |
| B3 | 0.7667 |
| B4 | 0.8081 |
| B5 | 0.7959 |
| B6 | 0.7791 |
| B7 | 0.8037 |
| B8 | 0.8044 |
| B9 | 0.7774 |
| B10 | 0.7698 |
| B11 | 0.7625 |
| B12 | 0.7679 |
| B13 | 0.7672 |
| B14 | 0.8173 |
| B15 | 0.7978 |
| B16 | 0.7972 |
| B17 | 0.7679 |
| B18 | 0.7513 |
| B19 | 0.809 |
| B20 | 0.8009 |
| B21 | 0.8078 |

| Molecule | Mean relative activity |
| --- | --- |
| B22 | 1.055 |
| B23 | 1.056 |
| B24 | 0.7949 |
| B25 | 0.7776 |
| B26 | 0.8019 |
| B27 | 1.055 |
| B28 | 0.7542 |
| B29 | 0.8101 |
| B30 | 0.807 |
| B31 | 0.8063 |
| B32 | 0.798 |
| B33 | 0.7927 |
| B34 | 0.7744 |
| B35 | 0.7779 |
| B36 | 0.818 |
| B37 | 0.7574 |
| B38 | 0.7636 |
| B39 | 0.7902 |
| B40 | 1.055 |
| B41 | 0.8059 |
